The values below come from patent US11814435B2, “Therapeutic antibodies and their uses” (PFIZER INC., priority 2015, dated 2023).

Numbering of substitutions follows the chain as printed.

Sequences and labels used below:
T1: hBCMA (human BCMA) (Homo sapiens, UniProt Q02223)
T1 sequence (Q02223 1-184): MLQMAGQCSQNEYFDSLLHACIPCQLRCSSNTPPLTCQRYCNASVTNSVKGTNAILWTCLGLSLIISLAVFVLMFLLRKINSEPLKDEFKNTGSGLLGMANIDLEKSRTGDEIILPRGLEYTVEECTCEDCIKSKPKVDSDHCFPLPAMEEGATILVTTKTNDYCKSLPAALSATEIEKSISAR

B1: L3.PY/L1.PS/H2.DY: anti-BCMA antibody (antibody, V domains shown)
VH: EVQLLESGGGLVQPGGSLRLSCAASGFTFGSYAMTWVRQAPGKGLEWVSAIDYSGGNTFYADSVKGRFTISRDNSKNTLYLQMNSLRAEDTAVYYCARVSPIASGMDYWGQGTLVTVSS
VL: EIVLTQSPGTLSLSPGERATLSCRASQSVSSSYPSWYQQKPGQAPRLLIYGASSRATGIPDRFSGSGSGTDFTLTISRLEPEDFAVYYCQHYPYPPSFTFGQGTKVEIK
B2: L3.PY/L1.AH/H2.HA: anti-BCMA antibody (antibody, V domains shown)
VH: B1 VH with D52S, Y53H, S54A
VL: B1 VL with S31A, S32H, P34L, S35A
B3: L3.PY/L1.AH/H2.YQ: anti-BCMA antibody (antibody, V domains shown)
VH: B1 VH with D52S, S54Q
VL: B1 VL with S31A, S32H, P34L, S35A
B4: L3.PY/L1.AH/H2.DY: anti-BCMA antibody (antibody, V domains shown)
VH: B1 VH
VL: B1 VL with S31A, S32H, P34L, S35A
B5: L3.PY/L1.PS/H3.AE: anti-BCMA antibody (antibody, V domains shown)
VH: B1 VH with D52S, Y53G, S104A, G105E
VL: B1 VL
B6: L3.PY/L1.AH/H2.LT: anti-BCMA antibody (antibody, V domains shown)
VH: B1 VH with D52S, Y53L, S54T
VL: B1 VL with S31A, S32H, P34L, S35A
B7: L3.PY/L1.AH/H2.QR: anti-BCMA antibody (antibody, V domains shown)
VH: B1 VH with D52S, Y53G, S63Q, V64R
VL: B1 VL with S31A, S32H, P34L, S35A
B8: L3.PY/L1.PS/H2.YQ: anti-BCMA antibody (antibody, V domains shown)
VH: B1 VH with D52S, S54Q
VL: B1 VL
B9: L3.PY/L1.PS/H3.YA: anti-BCMA antibody (antibody, V domains shown)
VH: B1 VH with D52S, Y53G, A103Y, S104A
VL: B1 VL
B10: L3.PY/L1.PS/H3.TAQ: anti-BCMA antibody (antibody, V domains shown)
VH: B1 VH with D52S, Y53G, A97T, S104A, G105Q
VL: B1 VL
B11: L3.PY/L1.PS/H2.LT: anti-BCMA antibody (antibody, V domains shown)
VH: B1 VH with D52S, Y53L, S54T
VL: B1 VL
B12: L3.PY/L1.PS/H2.HA: anti-BCMA antibody (antibody, V domains shown)
VH: B1 VH with D52S, Y53H, S54A
VL: B1 VL
B13: L3.PY/L1.PS/H2.QL: anti-BCMA antibody (antibody, V domains shown)
VH: B1 VH with D52S, Y53G, S63Q, V64L
VL: B1 VL
B14: L3.PY/L1.AH/H3.YA: anti-BCMA antibody (antibody, V domains shown)
VH: B1 VH with D52S, Y53G, A103Y, S104A
VL: B1 VL with S31A, S32H, P34L, S35A
B15: L3.PY/L1.AH/H2.QL: anti-BCMA antibody (antibody, V domains shown)
VH: B1 VH with D52S, Y53G, S63Q, V64L
VL: B1 VL with S31A, S32H, P34L, S35A

In the first test the target is T1, hBCMA (human BCMA). Nature of the test: Kinetics and affinity of hBCMA/human IgG interactions by SPR (Bio-Rad Proteon XPR36). Format: binding. To be noted: huBCMA, 37° C. How it is done: All experiments were performed on a Bio-Rad Proteon XPR36 surface Plasmon resonance biosensor (Bio-Rad, Hercules, Calif.). An array of anti-BCMA antibodies was prepared using an amine-coupling method on a Bio-Rad GLC Sensor Chip similar to that described in Abdiche, et al., Anal. Biochem. 411, 139-151 (2011). The analysis temperature for the immobilization was 25° C. and the running buffer was HBS-T+(10 mM HEPES, 150 mM NaCl, 0.05% Tween-20, pH 7.4). Channels were activated in the analyte (horizontal) direction by injecting a mixture of 1 mM ECD and 0.25 mM NHS for 3 minutes at a flow rate of 30 μL/min. IgGs were immobilized on the activated spots by injecting them in the ligand (vertical) direction at 20 μg/mL in 10 mM Acetate pH 4.5 buffer for 1.5 minutes at […]. The activated surfaces were blocked by injecting 1M ethanolamine, pH 8.5 in the analyte direction for 3 minutes at 30 μL/min.
The analysis temperature for the hBCMA binding analysis was 37° C. or 25° C. in a running buffer of HBS-T+, supplemented with 1 mg/mL BSA. A kinetic titration method was employed for the interaction analysis as described in Abdiche, et al. The hBCMA (human BCMA) analyte was injected in the analyte direction using a series of injections from low to high concentration. The concentrations used were 0.08 nM, 0.4 nM, 2 nM, 10 nM and 50 nM (a 5-membered series, with a 5-fold dilution factor and top concentration of 50 nM). The association time for a given analyte dilution was two minutes. Immediately after the 50 nM hBCMA injection, dissociation was monitored for 2 hours. Prior to the hBCMA analyte injections, buffer was injected 5 times using the same association and dissociation times at the hBCMA analyte cycles to prepare a buffer blank sensorgram for double-referencing purposes (double referencing as described in Myszka, J. Mol. Recognit. 12, 279-284 (1999).
The sensorgrams were double-referenced and fit to a 1:1 Langmuir with mass transport kinetic titration model in BIAevaluation Software version 4.1.1 (GE Lifesciences, Piscataway, N.J.). The sensorgrams and fits are shown in FIG. 1, and the kinetics and affinity parameters for various anti-BCMA antibodies of the present invention are shown in Tables 6A-6C.
(In general: Surface plasmon resonance follows binding to a sensor surface in real time, without labels.)
With B1, the “ka (1/Ms) huBCMA @ 37° C.” value was determined as 3.22e+06 M⁻¹ s⁻¹ and the “kd (1/s) huBCMA @37° C.” value is 0.00361 s⁻¹.

Turning to B2, the “ka (1/Ms) huBCMA @ 37° C.” value stood at 3.33e+06 M⁻¹ s⁻¹ and the “kd (1/s) huBCMA @37° C.” value was found to be 0.00181 s⁻¹.

With B3, the “ka (1/Ms) huBCMA @ 37° C.” value was found to be 2.42e+06 M⁻¹ s⁻¹ and the “kd (1/s) huBCMA @37° C.” value worked out at 0.00193 s⁻¹.

Turning to B4, the “ka (1/Ms) huBCMA @ 37° C.” value was 3.05e+06 M⁻¹ s⁻¹ and the “kd (1/s) huBCMA @37° C.” value was 0.00152 s⁻¹.

B5: the “ka (1/Ms) huBCMA @ 37° C.” value is 3.14e+06 M⁻¹ s⁻¹ and the “kd (1/s) huBCMA @37° C.” value turned out to be 0.00146 s⁻¹.

B6: the “ka (1/Ms) huBCMA @ 37° C.” value amounted to 3.16e+06 M⁻¹ s⁻¹ and the “kd (1/s) huBCMA @37° C.” value turned out to be 0.00123 s⁻¹.

Turning to B7, the “ka (1/Ms) huBCMA @ 37° C.” value is 3.13e+06 M⁻¹ s⁻¹ and the “kd (1/s) huBCMA @37° C.” value was found to be 0.00181 s⁻¹.

As for B8, the “ka (1/Ms) huBCMA @ 37° C.” value was found to be 3.35e+06 M⁻¹ s⁻¹ and the “kd (1/s) huBCMA @37° C.” value came to 0.0043 s⁻¹.

Regarding B9, the “ka (1/Ms) huBCMA @ 37° C.” value turned out to be 3.07e+06 M⁻¹ s⁻¹ and the “kd (1/s) huBCMA @37° C.” value worked out at 0.00905 s⁻¹.

As for B10, the “ka (1/Ms) huBCMA @ 37° C.” value stood at 3.25e+06 M⁻¹ s⁻¹ and the “kd (1/s) huBCMA @37° C.” value is 0.00246 s⁻¹.

As for B11, the “ka (1/Ms) huBCMA @ 37° C.” value turned out to be 3.4e+06 M⁻¹ s⁻¹ and the “kd (1/s) huBCMA @37° C.” value amounted to 0.00465 s⁻¹.

As to B12, the “ka (1/Ms) huBCMA @ 37° C.” value amounted to 3.3e+06 M⁻¹ s⁻¹ and the “kd (1/s) huBCMA @37° C.” value is 0.0106 s⁻¹.

In the case of B13, the “ka (1/Ms) huBCMA @ 37° C.” value is 1.52e+07 M⁻¹ s⁻¹ and the “kd (1/s) huBCMA @37° C.” value was 0.314 s⁻¹.

For B14, the “ka (1/Ms) huBCMA @ 37° C.” value turned out to be 3e+06 M⁻¹ s⁻¹ and the “kd (1/s) huBCMA @37° C.” value is 0.0015 s⁻¹.

Turning to B15, the “ka (1/Ms) huBCMA @ 37° C.” value worked out at 3.04e+06 M⁻¹ s⁻¹ and the “kd (1/s) huBCMA @37° C.” value came to 0.0016 s⁻¹.

For another test, the system named is cyBCMA. As to the kind of experiment: Kinetics and affinity of cyBCMA/human IgG interactions by SPR (Bio-Rad Proteon XPR36). To be noted: 37° C. Format: binding, cynomolgus.
Turning to B1, the “ka (1/Ms) cyBCMA @ 37° C.” value was found to be 1.9e+06 M⁻¹ s⁻¹ and the “kd (1/s) cyBCMA @37° C.” value stood at 0.00378 s⁻¹.

With B2, the “ka (1/Ms) cyBCMA @ 37° C.” value came to 2.58e+06 M⁻¹ s⁻¹ and the “kd (1/s) cyBCMA @37° C.” value was determined as 0.00439 s⁻¹.

Consider B3, for which the “ka (1/Ms) cyBCMA @ 37° C.” value worked out at 1.58e+06 M⁻¹ s⁻¹ and the “kd (1/s) cyBCMA @37° C.” value turned out to be 0.00431 s⁻¹.

On to B4, for which the “ka (1/Ms) cyBCMA @ 37° C.” value amounted to 2.32e+06 M⁻¹ s⁻¹ and the “kd (1/s) cyBCMA @37° C.” value is 0.00451 s⁻¹.

In the case of B5, the “ka (1/Ms) cyBCMA @ 37° C.” value worked out at 2.46e+06 M⁻¹ s⁻¹ and the “kd (1/s) cyBCMA @37° C.” value is 0.00413 s⁻¹.

As to B6, the “ka (1/Ms) cyBCMA @ 37° C.” value is 2.19e+06 M⁻¹ s⁻¹ and the “kd (1/s) cyBCMA @37° C.” value was 0.00296 s⁻¹.

As for B7, the “ka (1/Ms) cyBCMA @ 37° C.” value amounted to 2.2e+06 M⁻¹ s⁻¹ and the “kd (1/s) cyBCMA @37° C.” value was determined as 0.00491 s⁻¹.

On to B8, for which the “ka (1/Ms) cyBCMA @ 37° C.” value came out at 2e+06 M⁻¹ s⁻¹ and the “kd (1/s) cyBCMA @37° C.” value worked out at 0.00374 s⁻¹.

As to B9, the “ka (1/Ms) cyBCMA @ 37° C.” value came out at 1.77e+06 M⁻¹ s⁻¹ and the “kd (1/s) cyBCMA @37° C.” value was 0.00998 s⁻¹.

On to B10, for which the “ka (1/Ms) cyBCMA @ 37° C.” value was 2.58e+06 M⁻¹ s⁻¹ and the “kd (1/s) cyBCMA @37° C.” value was 0.00552 s⁻¹.

As to B11, the “ka (1/Ms) cyBCMA @ 37° C.” value was 2.17e+06 M⁻¹ s⁻¹ and the “kd (1/s) cyBCMA @37° C.” value stood at 0.00411 s⁻¹.

For the molecule B12, the “ka (1/Ms) cyBCMA @ 37° C.” value was found to be 1.45e+06 M⁻¹ s⁻¹ and the “kd (1/s) cyBCMA @37° C.” value came to 0.00269 s⁻¹.

With B13, the “ka (1/Ms) cyBCMA @ 37° C.” value amounted to 657000 M⁻¹ s⁻¹ and the “kd (1/s) cyBCMA @37° C.” value is 0.000636 s⁻¹.

As for B14, the “ka (1/Ms) cyBCMA @ 37° C.” value came to 2.37e+06 M⁻¹ s⁻¹ and the “kd (1/s) cyBCMA @37° C.” value came out at 0.00526 s⁻¹.

For the molecule B15, the “ka (1/Ms) cyBCMA @ 37° C.” value is 2.62e+06 M⁻¹ s⁻¹ and the “kd (1/s) cyBCMA @37° C.” value was determined as 0.00955 s⁻¹.
